The record followed here is patent publication US20030082146A1.

The target in assay [1] is anti-His single-chain antibody (scFv) artificial receptor displayed on 293.HissFv.rec cells. In words: cell-based or functional assay.
Assay [2] has as its target wild-type Ad5 fiber (adenovirus serotype 5 (Ad5)) (UniProt P11818). Description: antibody-mediated virus capture on 9E10-coated plates, read out by GFP expression in 293.HissFv.rec cells (FACS).
Assay [3] deals with TSFLCmychis knobless fiber protein (adenovirus serotype 5 (Ad5); Moloney Murine Leukemia Virus) (UniProt P11818). Described as above.

Take “TSFLCmychis knobless fiber protein (from UniProt P11818 1-403; P03385 514-553)”: the gene transfer (EGFP expression) by AdGFP-TSFLCmychis into 293.HissFv.rec cells in the presence of the anti-fiber knob antibody in assay [1] was above 10%.

Turning to anti-Myc MoAb 9E10 (antibody), the percent functional virus bound (relative to binding to 1D6.14) stood at 0.2% in assay [2] and 2.3% in assay [3].
